Measured values as given in paper PMC4505504.

Target: Mycobacterium tuberculosis cytochrome bcc complex (QcrCAB) (M. tuberculosis) (UniProt P9WP35)
Assay: pyridine hemochrome heme quantification

Mycobacterium smegmatis cytochrome aa3 (cytochrome oxidase) (complex)
stoichiometry N: 1
